Reference: US20080274480A1
pIC50: −log10 of the molar value.

Biological target: BoNT/A receptor on mouse brain synaptosomes (mouse)

Substance: inactive BoNT/A toxin (formaldehyde-inactivated BoNT/A, Metabiologics, Inc.), unlabeled (from UniProt P0DPI1 2-1296)
- pIC50: 7.89
- percent inhibition: 100%
- percent inhibition at 2.0 µg: 98%
